{
  "source": "patent US10654918B2",
  "about": "“Inflammatory disease diagnosis and methods of treatment using down-regulators of lipopolysaccharide-responsive beige-like anchor” (University of South Florida, priority 2013, dated 2020)",
  "molecules": {"B1": {"name": "LRBA shRNA: shRNA plasmid against LRBA; targeted LRBA sequence SEQ ID No. 15 GGGATATTGTAGAAACTGTCTTT (nucleic acid)", "sense": "GGGATATTGTAGAAACTGTCTTTTTCAAGAGAAAAGACAGTTTCTACAATATCCCTTTTTT", "antisense": "CCCTATAACATCTTTGACAGAAAAAGTTCTCTTTTCTGTCAAAGATGTTATAGGGAAAAAA"}},
  "assay_type_in_all_cases": "cell-based, human",
  "key": {"Raji B cells": {"test_system": "Raji B cells", "assay": "Cytokines of Raji and Raji-9 cells treated with LPS (ELISA, CBA)", "experimental": "FIG. 21 are graphs showing knockdown of LRBA increases the TNFα levels in Raji B (Burkitt's lymphoma) cells. Raji B cells and Raji-9 (stably transfected with shRNA plasmid against LRBA) B cells were treated with LPS (1 μg/ml). The TNFa concentrations were measured by Human TNFα DuoSet ELISA kit (R&D) following the manufacture's instruction. A. Culture supernatant; B. Cell lysate. #=p<0.07, *=p<0.05, **=p<0.005.\nFIGS. 48(A)-(I). Knockdown of LRBA influences the levels of cytokines. A. Raji cells (LRBA WT or KD) were seeded in a 24 well plate wells and stimulated with LPS for 15 min (1), 30 min (2) and 1 hr (3) with 0.26 million cells in each well or for 2 h (4), 4 h (5) and 24 h (6) with 0.2 million cells in each well, 0.2 million of cells were plated in each well. ELISA and CBA assays of TNFα and IL-10. Cells were treated as in A. 0.2×10^6 cells, timepoint. 500 uL total volume medium. Duoset ELISA human TNF-a kit protocol was followed for cell culture supernatant. Blues: Raji (♦); Red: Raji9 (▪). Data are representative of 2 to 5 separate experiments.\nCell culture supernatants were directly used to detect human Th1 and Th2 cytokines (IL-2, IL-4, IL-5, IL-6, IL-10, TNFα and IFN-γ) using the human Th1/Th2 cytokine bead-array kit (BD Biosciences, San Jose, Calif.) according to the manufacturer's instructions. The TNF[…] concentrations were also measured by Human TNF[…] DuoSet ELISA kit (R&D, Catalog #DY210)."}, "NFκB": {"test_system": "NFκB", "assay": "NFκB luciferase activity in A549 clones with LRBA shRNA knockdown", "settings": "A549 clones with different knockdown levels, LPS 10 μg/ml; dose-dependent", "from_the_text": "FIG. 45A-D. Knockdown of LRBA deregulates NFκB. (A) Knockdown of LRBA increases NFκB luciferase activity. An NFκB luciferase reporter was used to measure the NFκB transcription activity. The data are shown as scatter with bar graph of mean with standard error of mean (SEM). (B) Knockdown of LRBA increases phospho-NFκB. The Phosflow kit including Cytofix Fixation Buffer, Phosflow Perm Buffer III and Stain Buffer (BD) and phospho-antibodies, NFκB p65 (pS529) PE-Cy7 were used for the intracellular staining following the company's instruction. For each samples, 50,000 cells were recorded for the FACS assay. (C) A549 cells were stably transfected with LRBA shRNA knockdown plasmid and several clones were picked up. Half million of cells were seeded in a well of a 24 well plate and incubated overnight, then stimulated with LPS (10 μg/ml) for certain time. Luciferase assay Biotium. NFκB luciferase activity is inversely dose-dependent on the LRBA levels in A549 cells with different levels of LRBA knockdown judged by the GFP levels of the cells stably transfected with the LRBA shRNA/GFP construct. (D) LRBA KD#3, LRBA KD#4 and LRBA KD#5 clones express different levels of GFP expression from low to high. The GFP expression levels can be an indicator of shRNA expression levels and are inversely related to the levels of LRBA. […]"}, "[1]": {"test_system": "MAPKs [p42/44, p38 and Jun N-terminal kinase (JNK)]", "assay": "MAPK Western blot in Raji and Raji9 cells", "settings": "LRBA KD Raji cells, LPS", "experimental": "FIGS. 47(A) and (B). Knockdown of LRBA deregulates MAPKs. Knockdown of LRBA upregulates p38 and JNK but downregulates p42/44. Half million of Raji or Raji9 cells were put in a well in a 6 well plate. After 24 hr, cells were treated with or without LPS for the time as indicated. 200 μl RIPA buffer with protease inhibitors and PMSF. (A) Western blot of cells was performed. 30 μl of cell extracts were loaded to ach well. Phosphorylated protein levels were normalized to β-Actin shown as the numbers between the two blots. (B) curves based on the Western blots. Quantity One software was used to quantify the levels.\nLike NF-κB, the mitogen-activated protein kinases (MAPKs) act as funnels to collect many stress-activated signals but function as bottle necks to filter and process these signals, and then have many diverse targets(26). Specifically, MAPKs are critical downstream hubs of the TLR4/LPS signal transduction(27) and may be affected by LRBA deficiency. The expression and activation of the three major MAPKs [p42/44, p38 and Jun N-terminal kinase (JNK)] were examined in Raji cells. […] The phospho-p42/44 measured by flow cytometry intracellular staining also is decreased (data not shown). […] The Drosophila MAPK and JNK have 82% and 78% identities with their human orthologues, respectively."}},
  "data": [
    {"molecule": "B1", "values": [
      {"measurement": "TNFα levels in cell culture supernatants and cell lysates (ELISA)", "setting": "Raji B cells; LPS stimulation for 15 min to 24 h, vs untransfected Raji B cells", "value": "significantly increased"},
      {"measurement": "secreted levels of IL-10 (CBA)", "setting": "Raji B cells; Raji cells, LPS", "value": "significantly increased"},
      {"measurement": "secreted levels of TNFα (CBA)", "setting": "Raji B cells; Raji cells, LPS", "value": "significantly increased"},
      {"measurement": "NFκB luciferase activity", "setting": "NFκB", "value": "increases"},
      {"measurement": "JNK kinase activity", "setting": "[1]", "value": "increased"},
      {"measurement": "p38 kinase activity", "setting": "[1]", "value": "increased"},
      {"measurement": "p42/44 kinase activity", "setting": "[1]", "value": "reduced"}
    ]}
  ]
}
